Patent US20030211469A1, “Inhibiting hepatitis c virus processing and replication” (priority 2003, published 2003)

Target: NS2/3 (810-1615BK): HCV residues 810-1615 of the BK strain, all of NS2 and most of NS3 (Hepatitis C virus, BK strain) (UniProt P26663)
Experiment: co-immunoprecipitation with anti-HSP90 mAb 3G3; NS2/3 synthesized in reticulocyte lysate with or without 10 µM geldanamycin (small molecule)

UniProt P26663, sequence (P26663 810-1615): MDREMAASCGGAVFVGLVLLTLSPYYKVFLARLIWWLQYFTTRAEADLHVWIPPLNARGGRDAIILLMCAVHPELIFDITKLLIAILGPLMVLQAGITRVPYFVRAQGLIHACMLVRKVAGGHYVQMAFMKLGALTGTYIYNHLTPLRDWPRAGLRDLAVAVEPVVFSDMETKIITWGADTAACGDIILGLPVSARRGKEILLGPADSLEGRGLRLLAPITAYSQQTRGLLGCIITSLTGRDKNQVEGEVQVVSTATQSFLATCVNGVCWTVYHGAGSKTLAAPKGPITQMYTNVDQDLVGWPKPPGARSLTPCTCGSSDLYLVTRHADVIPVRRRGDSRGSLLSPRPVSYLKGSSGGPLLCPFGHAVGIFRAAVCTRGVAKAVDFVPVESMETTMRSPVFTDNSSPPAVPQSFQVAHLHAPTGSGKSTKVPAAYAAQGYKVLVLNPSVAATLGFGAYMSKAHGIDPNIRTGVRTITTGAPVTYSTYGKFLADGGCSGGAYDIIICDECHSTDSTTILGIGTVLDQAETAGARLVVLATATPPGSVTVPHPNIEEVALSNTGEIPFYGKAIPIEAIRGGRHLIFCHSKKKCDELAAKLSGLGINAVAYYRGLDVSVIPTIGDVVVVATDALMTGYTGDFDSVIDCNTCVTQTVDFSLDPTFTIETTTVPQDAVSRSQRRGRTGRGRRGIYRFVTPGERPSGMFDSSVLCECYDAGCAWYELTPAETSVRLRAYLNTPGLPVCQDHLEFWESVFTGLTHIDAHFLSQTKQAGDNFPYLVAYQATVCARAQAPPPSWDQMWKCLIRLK

heat shock protein 90 (HSP90) (from UniProt P30947 2-726)
decrease of the amount of NS2/3 co-immunoprecipitated in the presence of 10 µM geldanamycin: 60%
